What was measured:
[1] = biological target: Kelch-like ECH-associated protein 1 (Keap1), Cy3-labeled (UniProt Q14145); assay: MST; Monolith NT.115; Cy3-labeled Keap1 at constant concentration, MNT titrated; 25 mM sodium phosphate, 150 mM NaCl, pH 8.0
[2] = biological target: α/β importin complex labeled with Cy3 (UniProt Q14974); assay: MST; Cy3-labeled β-importin in the α/β importin complex at constant concentration, MNT titrated; 20 mM HEPES, 110 mM KCl, 5 mM NaHCO3, 5 mM MgCl2, 0.1 mM CaCl2, 1 mM EGTA, 1 mM DTT, pH 7.4
Chain of UniProt Q14974 (Q14974 whole entry, looked up, one chain of several): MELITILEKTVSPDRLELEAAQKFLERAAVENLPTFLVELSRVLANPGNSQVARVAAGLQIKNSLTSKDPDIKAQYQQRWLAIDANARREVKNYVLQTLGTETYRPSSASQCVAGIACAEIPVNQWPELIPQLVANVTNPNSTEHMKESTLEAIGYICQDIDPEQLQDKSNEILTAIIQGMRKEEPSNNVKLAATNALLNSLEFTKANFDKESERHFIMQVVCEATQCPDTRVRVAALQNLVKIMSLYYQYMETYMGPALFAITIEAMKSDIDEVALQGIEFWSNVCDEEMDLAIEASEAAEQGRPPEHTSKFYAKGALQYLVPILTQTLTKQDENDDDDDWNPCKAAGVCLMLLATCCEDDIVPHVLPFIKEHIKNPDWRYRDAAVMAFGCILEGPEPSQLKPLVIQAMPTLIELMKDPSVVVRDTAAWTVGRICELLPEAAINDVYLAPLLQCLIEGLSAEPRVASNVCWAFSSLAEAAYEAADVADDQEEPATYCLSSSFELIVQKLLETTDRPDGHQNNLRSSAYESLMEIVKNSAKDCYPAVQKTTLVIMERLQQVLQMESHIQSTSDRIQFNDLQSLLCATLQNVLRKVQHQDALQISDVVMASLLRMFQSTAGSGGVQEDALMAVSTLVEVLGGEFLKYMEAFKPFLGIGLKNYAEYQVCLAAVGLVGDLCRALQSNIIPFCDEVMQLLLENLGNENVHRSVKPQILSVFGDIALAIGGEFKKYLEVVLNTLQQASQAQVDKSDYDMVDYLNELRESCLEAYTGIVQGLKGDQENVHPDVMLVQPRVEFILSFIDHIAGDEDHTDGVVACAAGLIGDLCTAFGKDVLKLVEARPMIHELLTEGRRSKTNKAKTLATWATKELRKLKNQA

[3] = biological target: epidermal growth factor receptor (EGFR) on A431 cells (human (endogenous in A431)) (UniProt P00533); assay: fluorescent-labeled ligand competitive binding on cells (plate reader); A431 cells fixed with 0.5% paraformaldehyde in 48-well plates; 25 nM Alexa-647-labeled MNT1 and different concentrations of MNTC or MNTN; DMEM with 1% BSA, 15 mM HEPES, pH 7.3, overnight at +4 °C

Chain of UniProt Q14145 (Q14145 whole entry): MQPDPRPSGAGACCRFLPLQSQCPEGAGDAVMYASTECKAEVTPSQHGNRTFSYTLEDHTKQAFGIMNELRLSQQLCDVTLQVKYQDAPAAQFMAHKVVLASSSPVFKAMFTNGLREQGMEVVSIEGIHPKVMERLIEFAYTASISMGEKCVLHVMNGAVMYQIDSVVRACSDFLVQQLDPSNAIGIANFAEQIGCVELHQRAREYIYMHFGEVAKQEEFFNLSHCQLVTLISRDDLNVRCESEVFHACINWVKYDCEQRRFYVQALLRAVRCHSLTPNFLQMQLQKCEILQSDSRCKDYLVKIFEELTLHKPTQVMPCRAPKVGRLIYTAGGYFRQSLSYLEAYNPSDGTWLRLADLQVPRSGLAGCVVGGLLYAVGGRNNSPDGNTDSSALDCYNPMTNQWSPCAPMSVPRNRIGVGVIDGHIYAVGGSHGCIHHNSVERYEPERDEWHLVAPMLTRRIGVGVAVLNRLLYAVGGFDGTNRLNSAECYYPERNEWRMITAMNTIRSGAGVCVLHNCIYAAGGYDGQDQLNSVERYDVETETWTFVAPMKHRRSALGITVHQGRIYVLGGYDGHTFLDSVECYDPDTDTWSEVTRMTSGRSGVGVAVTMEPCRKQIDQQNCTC

| Substance | Kd [1] | Kd [2] | Kd [3] |
| --- | --- | --- | --- |
| DTox-HMPN-NLS-EGF (modular nanotransporter with the N-terminal fragment of HMP) (from UniProt P24232 1-136) | 428 nM | 160 nM | 20 nM |
| DTox-HMP-NLS-EGF (original modular nanotransporter with full-size HMP carrier module) (from UniProt P24232 1-396) | 205 nM |  |  |

Source: PMC11360004
